From US20040048243A1, “Methods and compositions for in vitro targeting” (priority 2003, published 2004) come the findings set out here.

No end group written: not given here.

Test [1] concerns cells infected by targeted phage vectors. Description: Enhancement of phage transduction by genotoxic agents or genetic trans-complementation. Format: cell-based. To be noted: genotoxic drug 10 μM added 36 hours after infection, analysis at 72 hours post-infection. How it is done: Semi-confluent cells were infected with 10^5 TU of phage per cell for 4 hours in serum free media, after which fresh medium supplemented with FCS was added (no phage were washed out or removed). In some experiments, a phage admixture of forward and reverse clones at 10^10 TU (forward/reverse molar ratio=1) was tested. Next, cells were incubated for 36 hours followed by the addition of genotoxic drugs (topotecan, 10 μM; cisplatin, 10 μM) or administration of UV radiation (15 J/m^2) with a cross-linker apparatus (UV Stratalinker Model 2400; Stratagene). At 72 hours post-infection, the cells were analyzed for transduction of a reporter gene (β-gal or GFP), and gene expression was normalized per cell number relative to controls.

In test [2] the target is T1, rhAngiostatin (Homo sapiens, UniProt P00747).
T1 construct: rh-Angiostatin and rh-Endostatin were produced by EntreMed, Inc; purchased EntreMed, Inc. (Rockville, Md.)
Description: Panning of CX7C phage library on rhAngiostatin (clone frequency). It counts as binding. To be noted: clones sequenced after panning on rhAngiostatin. The method, then:
(§1) A phage library displaying random cyclic peptides with the structure CX7C (C, cysteine; X, any residue) was prepared. An aliquot of the library containing 3×10^10 transducing units (TU) was screened with rhAngiostatin protein coated on microtiter wells as described (Koivunen et al 1993). In the first and second panning the amount of protein used was 10 μg/well. To increase the stringency of panning, the wells were coated with a decreased concentration of rhAngiostatin protein (100 ng/well) in the third panning. Phage remained bound after extensive washing. Bound phage were recovered by infection into F-pilus positive K91 bacteria. To determine the specificity of rhAngiostatin binding, selected phage were assayed as described but using rh-Endostatin and BSA proteins to coat the wells. In all assays, insertless phage (fdtet) was used as a control.
(§2) Phage were sequenced from randomly selected clones after three rounds of panning (Koivunen et al., 1994, 1995; Pasqualini et al., 1995). A number of distinct angiostatin-targeting sequences were identified (Table 10). Randomly selected clones from rounds II and III were sequenced. Amino acid sequences of the phagemid encoded peptides were deduced from nucleotide sequences. A consensus sequence appeared on the third round in 61% of the sequences examined (26 out of 42)—CWSLEXXKC (SEQ D NO: 141). Including the closely related sequence CWSAEWTKC (SEQ ID NO: 142) the consensus motif accounted for 71% of Angiostatin binding peptides. The ratios in the last two columns of Table 10 were calculated by dividing the number of colonies recovered from rhAngiostatin-coated wells by those recovered from rh-Endostatin or BSA wells.

For test [3], the system named is antibodies present in the serum. The experiment in a line: ELISA of sera on immobilized GST-fusion peptides. Format: binding, human. To be noted: for reactivity of serum against peptide in presence of the corresponding synthetic peptide: data not shown; for ELISA reactivity of patient serum with GST-fusion peptide: serum of the patients selected for the screenings, GST alone as negative control. How it is done:
A 20 μg/ml solution of purified GST or GST-fusion proteins in 0.1M NaHCO3 was used to coat maxisorp multi-well plates (Nalge Nunc International Corporation) and incubated overnight at 4° C. The plates were blocked in a blocking buffer (4% milk, 2% casein, and 0.05% Tween-20) for 3-4 hours. A series of […] (1:100-1:1200) of sera from prostate cancer patients or healthy individuals was added and incubated for 1.5 hours and then washed five times with washing buffer (1% milk, 0.5% casein, and 0.025% Tween-20), followed by incubation at 4° C. with anti-human allaline phosphatase-conjugated antibodies (Gibco). The plates were then washed six times in washing buffer and developed using p-NPP (Sigma) as a substrate. An automatic ELISA plate reader (BIO-TEK instrument) recorded the results at OD405 nm.
Probabilities of survival for each group were estimated using the Kaplan-Meier method. A log-rank test was implemented in order to detect significant differences between the groups. Reactivity was considered to be detected if the ratio between GST-peptide and GST alone was greater or equal to two by the ELISA data. The Cox proportional hazards model was applied to analyze the effect of single and multiple risk factors in association with survival. Martingale residual plots were used to assess the proportional hazard assumption. P-values less than 0.05 were considered significant. All analyses were performed using SPLUS statistical software.
ELISA was performed to assess if the peptides could be specifically recognized by the antibodies present in the serum of the patients selected for the screenings. Peptides A (CHQKPWEC, SEQ ID NO: 58), B (CKDRFERC, SEQ ID NO: 59), and C (CNVSDKSC, SEQ ID NO: 60) were produced as GST-fusion proteins and immobilized onto microtiter wells, along with GST alone as a negative control. For each sample tested, a series of 100-fold dilutions was performed. […] The reactivity of each serum against peptides A, B and C was inhibited by the corresponding synthetic peptides (data not shown).
The reactivity profile of 91 sera obtained from clinically annotated prostate cancer patients was examined. Sera from 34 healthy individuals were also tested as a control for specificity. ELISA was performed to evaluate each serum using the three selected peptides (A, B, and C). The sera obtained from patients with prostate cancer were divided into three groups: 35 originated from patients with localized adenocarcinomas, 27 from patients with metastatic androgen-dependent disease, and 29 originated from patients with metastatic androgen-independent disease.

For test [4], the system named is IgG from the ovarian cancer patient. The experiment in a line: Binding of phage to IgGs isolated from ovarian cancer patient ascites or serum. Also on record: species or system human. From the text:
FIG. 22. Binding of phage containing the CVPELGHEC (SEQ ID NO: 271) and CFELGFELGC (SEQ ID NO: 272) targeting peptides to IgG's isolated from ovarian cancer patient #2 ascites, normal serum and BSA.
FIG. 23. Binding of phage containing the CVPELGHEC (SEQ ID NO: 271) targeting peptide to IgG's isolated from normal serum or from ascites of ovarian cancer patient #1 or #2. Control fd-tet phage contained no insert DNA.
FIG. 24. Binding of phage containing the CVPELGHEC (SEQ ID NO: 271) targeting peptide to IgG's isolated from serum of ovarian cancer patient #2, normal serum or BSA.
To select peptides specific to the ascitic fluid of ovarian cancer patients, IgGs from normal donor serum and ovarian cancer cell free ascitic fluid were bound to Protein agarose (Pierce) in the Pierce acetate, pH5 binding buffer. A two step biopanning procedure was employed in which the first step involved pre-clearing the phage peptide library by incubating it with IgGs isolated from normal donor serum in order to remove common antigens. This was followed by a second step where the pre-cleared library was used to screen cancer specific IgGs. Approximately 10^8 transforming units were added to the IgGs for the panning procedure. The resultant IgG-bound phage were recovered by eluting the phage with 0.1M glycine buffer, pH2.2, neutralizing the phage with 0.1 volume 1 M Tris-Cl, pH 9, and using the phage to infect stationary phase Escherichia coli strain K91. Serial dilutions of phage infected-K91 were plated onto tetracycline (40 μg/ml) LB agar plates and grown overnight at 37° C. Individual clones were picked, amplified, and precipitated for subsequent rounds of panning. A total of three rounds of selection were performed. Phage clones from the second and third rounds were subject to PCR followed by sequence analysis to evaluate enrichment of the most consistently binding peptide sequences.

Test [5] concerns the target T2, rhAngiostatin (human, UniProt P00747 98-357, limits assumed). Description: phage binding to coated wells; colonies from rhAngiostatin wells divided by those from BSA wells. The method, then: as §1, with “CX₇C” for “CX7C”, “3×10¹⁰” for “3×10^10”
as §2, with “CWSAEWTKC” left out

Test [6] addresses T2, rhAngiostatin. The experiment in a line: phage binding to coated wells; colonies from rhAngiostatin wells divided by those from rh-Endostatin wells. How it is done: as §1, with “CX₇C” for “CX7C”, “3×10¹⁰” for “3×10^10”
as §2, with “CWSAEWTKC” left out

T2 sequence (P00747 98-357 limits assumed): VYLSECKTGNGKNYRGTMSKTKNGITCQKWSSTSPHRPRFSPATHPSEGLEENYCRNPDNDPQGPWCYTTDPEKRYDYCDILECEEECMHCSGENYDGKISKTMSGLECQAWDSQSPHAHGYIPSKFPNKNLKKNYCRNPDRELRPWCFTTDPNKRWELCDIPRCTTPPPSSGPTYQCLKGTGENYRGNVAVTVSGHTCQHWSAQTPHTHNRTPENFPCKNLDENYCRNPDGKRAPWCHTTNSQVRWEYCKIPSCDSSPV
T1 sequence (P00747 79-466 limits assumed): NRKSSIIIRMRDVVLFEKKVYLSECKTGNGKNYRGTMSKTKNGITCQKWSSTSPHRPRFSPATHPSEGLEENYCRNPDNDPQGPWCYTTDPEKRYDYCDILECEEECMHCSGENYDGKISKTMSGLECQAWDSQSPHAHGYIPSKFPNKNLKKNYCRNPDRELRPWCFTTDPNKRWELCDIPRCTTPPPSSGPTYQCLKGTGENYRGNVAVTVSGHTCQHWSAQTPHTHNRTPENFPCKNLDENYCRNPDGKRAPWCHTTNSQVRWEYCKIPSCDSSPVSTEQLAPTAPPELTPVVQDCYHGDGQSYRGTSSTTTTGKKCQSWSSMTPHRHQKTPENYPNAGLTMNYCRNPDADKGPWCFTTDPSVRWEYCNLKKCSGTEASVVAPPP

As to `N.N.[Cl][Pt][Cl]` [cisplatin], the “gene transduction by targeted phage vectors relative to controls” value in test [1] is given as “several fold higher”.

In the case of CGGREFWLC, the frequency with rhAngiostatin [2] is reported as 1/42.

For CGVVSRVGC, the frequency in the test with rhAngiostatin [2] was 1/42.

In the case of CHQKPWEC [peptide A], in test [3], the “reactivity of serum against peptide in presence of the corresponding synthetic peptide” value (“reactivity of serum against peptide” for short) was “inhibited” and the “ELISA reactivity of patient serum with GST-fusion peptide” value (from here on “ELISA reactivity of patient serum”) was “strong reactivity”.

As to CKDRFERC [peptide B], in test [3], the “reactivity of serum against peptide” value was “inhibited” and the “ELISA reactivity of patient serum” value is “strong reactivity”.

In the case of CLAWVGGRC, in the test with rhAngiostatin [2], the frequency is recorded as 1/42.

As to CNVSDKSC [peptide C], in test [3], the “reactivity of serum against peptide” value is listed as “inhibited” and the “ELISA reactivity of patient serum” value is recorded as “strong reactivity”.

On to CQGKFSQRC, for which, in the test with rhAngiostatin [2], the frequency was 1/42.

Take CRVLADRDC: the frequency in the test with rhAngiostatin [2] is 1/42.

CRWSSMIWC: in the test with rhAngiostatin [2], the frequency is recorded as 1/42.

Turning to CSLQGIVGC, in the test with rhAngiostatin [2], the frequency is 1/42.

Take CSRSVSRLC: the frequency with rhAngiostatin [2] is 1/42.

CVAADRYVC: in the test with rhAngiostatin [2], the frequency is listed as 1/42.

As for CVPELGHEC, the “phage binding to IgG from ovarian cancer patient #2 ascites versus IgG from a normal patient or BSA” value in test [4] (FIG. 22) is reported as “very high selectivity”. Also, the “phage binding to IgGs from patient #2 compared to patient #1 or normal individuals” value in test [4] (FIG. 23) was “much higher affinity”. Further, the “phage binding to serum from patient #2 compared to BSA or normal serum” value in test [4] (FIG. 24) is recorded as “similarly high selectivity”.

On to CWSAEWTKC, for which, in the test with rhAngiostatin [2], the frequency was 4/42.

CWSLEFTKC: the frequency in the test with rhAngiostatin [2] is given as 5/42.

In the case of CWSLELLKC, the frequency with rhAngiostatin [2] was 2/42.

Turning to CWSLELSKC, the frequency in the test with rhAngiostatin [2] is listed as 10/42.

As to CWSLESLKC, the frequency with rhAngiostatin [2] is listed as 4/42.

As for CWSLEVAKC, the frequency in the test with rhAngiostatin [2] is on record as 5/42.

Consider CYGAWRVSC, for which the frequency with rhAngiostatin [2] was 1/42.

B1: phage displaying CRWSSMIWC (peptide)
peptide: CRWSSMIWC
modifications: not fully specified (bridges); cysteine pairing not given here; also: displayed on phage
With B1, the “rh-Angio/BSA (ratio of colonies recovered)” value with rhAngiostatin [5] came to 11 ratio. Besides, in the test with rhAngiostatin [6], the “rh-Angio/rhEndo (ratio of colonies recovered)” value stood at 7 ratio.

B2: phage displaying CWSLEVAKC (peptide)
peptide: CWSLEVAKC
modifications: not fully specified (bridges); cysteine pairing not given here; also: displayed on phage
As to B2, the “rh-Angio/BSA (ratio of colonies recovered)” value with rhAngiostatin [5] amounted to 1120 ratio. Further, the “rh-Angio/rhEndo (ratio of colonies recovered)” value with rhAngiostatin [6] came out at 486 ratio.

B3: phage displaying CWSAEWTKC (peptide)
peptide: CWSAEWTKC
modifications: not fully specified (bridges); cysteine pairing not given here; also: displayed on phage
In the case of B3, the “rh-Angio/BSA (ratio of colonies recovered)” value with rhAngiostatin [5] is 892 ratio. The “rh-Angio/rhEndo (ratio of colonies recovered)” value in the test with rhAngiostatin [6] amounted to 124 ratio.

B4: phage displaying CWSLELLKC (peptide)
peptide: CWSLELLKC
modifications: not fully specified (bridges); cysteine pairing not given here; also: displayed on phage
With B4, in the test with rhAngiostatin [5], the “rh-Angio/BSA (ratio of colonies recovered)” value was 734 ratio. Also, the “rh-Angio/rhEndo (ratio of colonies recovered)” value with rhAngiostatin [6] turned out to be 489 ratio.

B5: phage displaying CWSLELSKC (peptide)
peptide: CWSLELSKC
modifications: not fully specified (bridges); cysteine pairing not given here; also: displayed on phage
B5: the “rh-Angio/BSA (ratio of colonies recovered)” value in the test with rhAngiostatin [5] was determined as 630 ratio. The “rh-Angio/rhEndo (ratio of colonies recovered)” value with rhAngiostatin [6] was determined as 630 ratio.

B6: phage displaying CYGAWRVSC (peptide)
peptide: CYGAWRVSC
modifications: not fully specified (bridges); cysteine pairing not given here; also: displayed on phage
Consider B6, for which the “rh-Angio/BSA (ratio of colonies recovered)” value in the test with rhAngiostatin [5] was 14 ratio. Besides, the “rh-Angio/rhEndo (ratio of colonies recovered)” value with rhAngiostatin [6] worked out at 6 ratio.

B7: phage displaying CWSLEFTKC (peptide)
peptide: CWSLEFTKC
modifications: not fully specified (bridges); cysteine pairing not given here; also: displayed on phage
On to B7, for which, in the test with rhAngiostatin [5], the “rh-Angio/BSA (ratio of colonies recovered)” value amounted to 958 ratio. The “rh-Angio/rhEndo (ratio of colonies recovered)” value with rhAngiostatin [6] is 958 ratio.
